Assay results: patent US20040180405A1 (NEUROSEARCH A S, published 2004)

Columns and labels:
Assay in all cases: cell-based or functional assay
[1] = molecular target: T1, KCNQ3 (T323Y) mutant (human, UniProt O43525 1-872)
T1 sequence (looked up): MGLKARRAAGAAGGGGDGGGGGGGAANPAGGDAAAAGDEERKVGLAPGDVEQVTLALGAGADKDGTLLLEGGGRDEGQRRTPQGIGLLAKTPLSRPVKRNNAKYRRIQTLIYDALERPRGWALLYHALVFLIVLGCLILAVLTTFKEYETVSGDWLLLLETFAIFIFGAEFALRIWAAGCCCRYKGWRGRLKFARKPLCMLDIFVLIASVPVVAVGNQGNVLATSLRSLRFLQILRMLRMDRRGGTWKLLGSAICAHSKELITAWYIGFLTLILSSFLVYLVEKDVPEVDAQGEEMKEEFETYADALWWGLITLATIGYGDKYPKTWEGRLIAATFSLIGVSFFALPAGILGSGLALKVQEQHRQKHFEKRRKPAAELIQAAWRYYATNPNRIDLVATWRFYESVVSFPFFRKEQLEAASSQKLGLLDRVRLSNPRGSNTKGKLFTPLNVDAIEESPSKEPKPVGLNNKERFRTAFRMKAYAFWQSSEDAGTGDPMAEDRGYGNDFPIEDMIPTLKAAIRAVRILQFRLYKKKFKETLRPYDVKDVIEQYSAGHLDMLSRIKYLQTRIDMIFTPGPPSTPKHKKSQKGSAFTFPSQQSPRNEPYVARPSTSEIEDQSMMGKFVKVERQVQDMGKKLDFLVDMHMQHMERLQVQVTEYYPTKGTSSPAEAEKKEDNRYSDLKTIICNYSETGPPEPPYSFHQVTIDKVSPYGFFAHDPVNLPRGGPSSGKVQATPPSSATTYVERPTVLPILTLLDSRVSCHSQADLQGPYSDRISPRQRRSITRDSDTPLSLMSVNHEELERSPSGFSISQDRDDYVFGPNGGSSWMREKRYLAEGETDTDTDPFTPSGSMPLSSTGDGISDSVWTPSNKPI

[2] = molecular target: T2, KCNQ3 potassium channel subunit (human, UniProt O43525 1-872)
T2 sequence (looked up): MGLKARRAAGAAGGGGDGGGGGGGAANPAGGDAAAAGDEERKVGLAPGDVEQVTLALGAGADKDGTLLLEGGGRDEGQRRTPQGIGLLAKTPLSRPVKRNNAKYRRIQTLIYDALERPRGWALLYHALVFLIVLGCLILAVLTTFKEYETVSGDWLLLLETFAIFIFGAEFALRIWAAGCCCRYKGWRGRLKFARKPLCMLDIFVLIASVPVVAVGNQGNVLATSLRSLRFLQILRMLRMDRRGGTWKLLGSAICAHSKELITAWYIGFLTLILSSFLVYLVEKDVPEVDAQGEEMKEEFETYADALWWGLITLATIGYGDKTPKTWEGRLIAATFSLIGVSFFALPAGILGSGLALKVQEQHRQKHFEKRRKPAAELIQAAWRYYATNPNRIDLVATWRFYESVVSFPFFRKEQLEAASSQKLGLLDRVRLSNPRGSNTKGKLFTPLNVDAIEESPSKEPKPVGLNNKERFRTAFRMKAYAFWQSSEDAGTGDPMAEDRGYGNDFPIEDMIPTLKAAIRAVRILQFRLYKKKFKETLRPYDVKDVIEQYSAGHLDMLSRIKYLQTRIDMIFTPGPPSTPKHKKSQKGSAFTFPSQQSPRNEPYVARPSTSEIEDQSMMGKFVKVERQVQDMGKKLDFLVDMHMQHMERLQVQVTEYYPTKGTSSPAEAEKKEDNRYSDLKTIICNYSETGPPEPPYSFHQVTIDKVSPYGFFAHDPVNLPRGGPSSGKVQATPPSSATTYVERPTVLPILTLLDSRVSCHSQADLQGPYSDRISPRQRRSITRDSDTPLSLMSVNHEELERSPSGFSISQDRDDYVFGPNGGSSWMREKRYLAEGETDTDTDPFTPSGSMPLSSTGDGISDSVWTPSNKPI

[3] = molecular target: T3, KCNQ3(G318S) dominant negative mutant (human, UniProt O43525 1-872)
T3 sequence (looked up): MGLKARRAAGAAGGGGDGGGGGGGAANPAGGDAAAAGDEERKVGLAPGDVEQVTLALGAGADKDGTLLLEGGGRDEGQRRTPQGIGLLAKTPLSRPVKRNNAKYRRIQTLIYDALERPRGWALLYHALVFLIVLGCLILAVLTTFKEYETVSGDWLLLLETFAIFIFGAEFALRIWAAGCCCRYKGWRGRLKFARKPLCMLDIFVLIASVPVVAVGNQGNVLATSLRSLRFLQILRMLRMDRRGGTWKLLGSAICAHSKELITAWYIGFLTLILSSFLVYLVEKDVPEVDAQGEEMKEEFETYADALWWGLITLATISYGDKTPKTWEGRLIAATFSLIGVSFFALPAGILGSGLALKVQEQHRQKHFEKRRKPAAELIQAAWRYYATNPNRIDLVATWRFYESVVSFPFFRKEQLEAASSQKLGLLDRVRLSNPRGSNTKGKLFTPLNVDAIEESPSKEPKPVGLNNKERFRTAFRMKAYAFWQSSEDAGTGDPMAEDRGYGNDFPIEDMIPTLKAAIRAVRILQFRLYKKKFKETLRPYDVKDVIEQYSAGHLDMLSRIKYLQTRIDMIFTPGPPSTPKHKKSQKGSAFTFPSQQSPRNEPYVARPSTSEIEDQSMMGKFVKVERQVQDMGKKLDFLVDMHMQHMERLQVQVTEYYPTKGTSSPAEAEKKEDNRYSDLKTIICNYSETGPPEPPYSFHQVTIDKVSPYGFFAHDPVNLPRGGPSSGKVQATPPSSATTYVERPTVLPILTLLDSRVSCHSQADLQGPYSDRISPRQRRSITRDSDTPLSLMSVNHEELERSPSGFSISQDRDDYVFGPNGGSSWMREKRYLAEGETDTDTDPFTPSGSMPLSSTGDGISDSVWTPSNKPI

B1: KCNQ5 potassium channel subunit (other)
chain: MKDVESGRGRVLLNSAAARGDGLLLLGTRAATLGGGGGGLRESRRGKQGARMSLLGKPLSYTSSQSCRRNVKYRRVQNYLYNVLERPRGWAFIYHAFVFLLVFGCLILSVFSTIPEHTKLASSCLLILEFVMIVVFGLEFIIRIWSAGCCCRYRGWQGRLRFARKPFCVIDTIVLIASIAVVSAKTQGNIFATSALRSLRFLQILRMVRMDRRGGTWKLLGSVVYAHSKELITAWYIGFLVLIFSSFLVYLVEKDANKEFSTYADALWWGTITLTTIGYGDKTPLTWLGRLLSAGFALLGISFFALPAGILGSGFALKVQEQHRQKHFEKRRNPAANLIQCVWRSYAADEKSVSIATWKPHLKALHTCSPTKKEQGEASSSQKLSFKERVRMASPRGQSIKSRQASVGDRRSPSTDITAEGSPTKVQKSWSFNDRTRFRPSLRLKSSQPKPVIDADTALGTDDVYDEKGCQCDVSVEDLTPPLKTVIRAIRIMKFHVAKRKFKETLRPYDVKDVIEQYSAGHLDMLCRIKSLQTRVDQILGKGQITSDKKSREKITAEHETTDDLSMLGRVVKVEKQVQSIESKLDCLLDIYQQVLRKGSASALALASFQIPPFECEQTSDYQSPVDSKDLSGSAQNSGCLSRSTSANISRGLQFILTPNEFSAQTFYALSPTMHSQATQVPISQSDGSAVAATNTIANQINTAPKPAAPTTLQIPPPLPAIKHLPRPETLHPNPAGLQESISDVTTCLVASKENVQVAQSNLTKDRSMRKSFDMGGETLLSVCPMVPKDLGKSLSVQNLIRSTEELNIQLSGSESSGSRGSQDFYPKWRESKLFITDEEVGPEETETDTFDAAPQPAREAAFASDSLRTGRSRSSQSICKAGESTDALSLPHVKLK
[1]
  IC50 of extracellular TEA (small molecule) on currents of KCNQ5 co-expressed with KCNQ3 (T323Y); KCNQ5 homomers 71 mM: ~30 mM
[2]
  IC50 of extracellular TEA (small molecule) on currents of co-expressed KCNQ5 and KCNQ3 (1:1); KCNQ5 homomers 71 mM: ~200 mM
[3]
  current relative to WT KCNQ5 currents on co-injection with the dominant negative mutant: < 50%
